Test results: PMC8415317 (Genes & Development, 2021)
“Also recorded” adds a separate entry of the source. Marks after values point to notes of the source that are not given here. Values belong to the molecule of their own block, whether it stands above or below them.

Columns and labels:
[1] = SEC-MALS, molecular mass and oligomeric state; format: physicochemical, C. elegans
[2] = test system: Cy5-labeled 16-mer oligo(U) RNA; assay: Fluorescence anisotropy RNA binding, Cy5-U16; conditions: 100 nM Cy5-U16 RNA, pH 7.5, 15°C
TOFU-6^RRM = assay: SEC assay, TOFU-6^RRM with PID-3^RRM; format: binding, C. elegans; conditions: 1:1.5 molar ratio, Superdex 200 Increase 10/300
PID-3/TOFU-6 interaction = format: binding, C. elegans
[3] = test system: FITC-labeled 28-mer RNA based on the 21U-3372 precursor; assay: Fluorescence anisotropy RNA binding, FITC-28-mer pre-piRNA; design: species or system C. elegans; conditions: 100 nM FITC-28-mer RNA, pH 7.5, 15°C
ERH-2 [4] = format: binding, C. elegans
ERH-2:PID-3^pep 1:2 = biological target: T1, ERH-2:PID-3^pep 1:2 (Caenorhabditis elegans, UniProt O76616+Q20057); assay: Isothermal titration calorimetry, binding to ERH-2:PID-3^pep 1:2; design: species or system C. elegans; conditions: ITC, 25°C, 50 mM Tris, 250 mM NaCl, 1 mM TCEP, pH 7.50; 20 μM ERH-2:40 μM PID-3^pep in cell, 431 μM TOST-1^FL in syringe; average and SD of two or three measurements
T1 sequence (Q20057 1-113): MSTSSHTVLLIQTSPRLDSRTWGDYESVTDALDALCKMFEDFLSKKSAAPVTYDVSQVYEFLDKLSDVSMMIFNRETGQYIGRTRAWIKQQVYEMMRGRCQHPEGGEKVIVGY
T1 sequence (O76616 171-203 partner limits assumed): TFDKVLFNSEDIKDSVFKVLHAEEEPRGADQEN

ERH-1 = biological target: T2, ERH-1 (Caenorhabditis elegans, UniProt Q22640); assay: Streptavidin pull-down, TOST-1/PID-1 mVenus-Strep bait with ERH-1; format: binding, C. elegans; conditions: TOST-1 or PID-1 mVenus-Strep bait 10-20 μM, prey 1.2-fold molar excess, 4°C
T2 sequence (Q22640 1-103): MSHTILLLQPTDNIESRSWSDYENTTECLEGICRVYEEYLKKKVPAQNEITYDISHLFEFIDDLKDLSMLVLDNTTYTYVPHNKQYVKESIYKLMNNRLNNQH

ERH-2 [5] = assay: Streptavidin pull-down, TOST-1/PID-1 mVenus-Strep bait with ERH-2; format: binding, C. elegans; conditions: TOST-1 or PID-1 mVenus-Strep bait 10-20 μM, prey 1.2-fold molar excess, 4°C
ERH-2 [6] = biological target: T3, ERH-2 (Caenorhabditis elegans, UniProt Q20057); assay: Isothermal titration calorimetry, binding to ERH-2; design: species or system C. elegans; conditions: ITC, 20 μM ERH-2 in cell, 431 μM TOST-1^FL in syringe; N fixed at 1, not fitted
T3 sequence (Q20057 1-113): T1 sequence (Q20057 1-113)

[7] = test system: ERH-2 alone, ERH-2/PID-3 subcomplex, full PETISCO; assay: Streptavidin pull-down, TOST-1-mVenus-Strep with ERH-2, ERH-2/PID-3 or PETISCO; format: binding, C. elegans; conditions: TOST-1-mVenus-Strep as bait
ERH-2 [8] = biological target: T3, ERH-2; assay: NMR-monitored titration of 15N-labeled ERH-2; format: binding, C. elegans; conditions: TOST-1^FL added to 15N-labeled ERH-2, 25°C
ERH-2/PID-3 = assay: SEC assay, ERH-2/TOST-1/PID-3 complex; format: binding, C. elegans; conditions: full-length ERH-2, TOST-1 and PID-3, 1:1 ratio

relative RNA binding affinity [2]: lowest binding affinity | relative RNA binding affinity [3]: lowest binding affinity | binding to ERH-2 in GST pull-down (ERH-2 [4]): failed to bind ERH-2
B1: PID-3^RRM: PID-3 RRM domain, residues 196–274 (protein)
chain: PRGADQENMLKISGYPGMLNTFGIAQLLTPYRVNGITITGAQSAVVALENKFQVYQAVQDFNGKKLDRNHKLQVSSLVV
modifications: left off: His6, N-terminal, state not stated | GST, N-terminal, state not stated
oligomeric state [1]: homodimers | PID-3^RRM/TOFU-6^RRM interaction by SEC (TOFU-6^RRM): This is supported by SEC | PID-3/TOFU-6 interaction in pull-down (PID-3/TOFU-6 interaction): the RRM domains of PID-3 and TOFU-6 mediate the interaction between the two proteins

Kd (ERH-2:PID-3^pep 1:2): 15 ± 2 µM | N (stoichiometry) (ERH-2 [6]): 1^c | amide CSPs of full-length protein vs peptide (ERH-2 [8]): very similar amide CSPs
B2: TOST-1^FL: full-length TOST-1 (protein)
chain: MTTAIQYQVIPLADREHSNKVASILENKYKTATNKRITLNERFGVLEKGYTIQATEPETVKNDSDVFFVVHDRNLNSKKEFVENYLAKNPIVNSPEKVFEEEDKENAPTKKAVLKPSSTDEKKLTSSDIYIQEITRSILQSV
modifications: left off: His6, N-terminal, state not stated | Trx, N-terminal, state not stated
binding to ERH-1 in streptavidin pull-down (ERH-1): interacted with ERH-1; also recorded: more efficient bait than PID-1 | binding to ERH-2 in streptavidin pull-down (ERH-2 [5]): Both PID-1 and TOST-1 bound ERH-2; also recorded: more efficient bait than PID-1 | pull-down of ERH-2 alone, with PID-3 or within PETISCO [7]: pulled down ERH-2 in all conditions; also recorded: more ERH-2 is pulled down when ERH-2 is in complex with PID-3 or as part of PETISCO | trimeric complex formation by SEC (ERH-2/PID-3): elutes at smaller elution volumes than the dimeric subcomplexes
